Data: patent CN115703833A (BOAOXIN BIOTECHNOLOGY NANJING CO LTD, dated 2023)

Key:
[1] = target: T1, 人CD47 (表面过表达人CD47的293F细胞) (human, UniProt Q08722 19-323); assay: flow cytometry on 293F cells overexpressing human CD47
T1 construct: whole, on cells; also called 表面过表达人CD47的稳定细胞系293F

[2] = target: T2, 重组人CD47-his蛋白 (ACRO biosystems, cat#CD7-H5227, MW 15.6 kDa) (human, UniProt Q08722 19-139, biotin-labelled in the ELISAs (position not given); unlabelled in Biacore); assay: Biacore T200 SPR; antibody captured by goat anti-mouse IgG on a CM5 chip, CD47-his as analyte
T2 construct: also called 人CD47蛋白; 人CD47-生物素; not shown: his tag
T2 sequence (Q08722 19-139 limits assumed): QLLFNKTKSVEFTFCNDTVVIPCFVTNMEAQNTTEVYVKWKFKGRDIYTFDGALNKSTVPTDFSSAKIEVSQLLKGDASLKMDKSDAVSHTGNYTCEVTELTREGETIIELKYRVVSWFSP

T1 sequence (Q08722 19-323): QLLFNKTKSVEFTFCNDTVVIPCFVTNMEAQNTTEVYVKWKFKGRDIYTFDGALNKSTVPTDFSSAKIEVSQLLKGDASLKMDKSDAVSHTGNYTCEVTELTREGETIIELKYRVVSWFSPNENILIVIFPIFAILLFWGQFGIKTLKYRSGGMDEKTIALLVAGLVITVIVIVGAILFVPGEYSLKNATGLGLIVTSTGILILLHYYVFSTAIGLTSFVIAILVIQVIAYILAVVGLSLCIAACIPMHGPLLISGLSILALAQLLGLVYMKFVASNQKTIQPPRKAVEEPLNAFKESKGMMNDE

B1: 本发明的单克隆抗体1D5 (小鼠抗CD47单克隆抗体) (antibody, V domains shown)
VH: EVQLQQSGAELVRSGASVKLSCTASGFNIKDYYMSWVRQRPEQGLEWIGWIDPKNGDTAYDPKFQGKATMTADTSSNTAYLQFSSLTSEDTADYYCNAGGRGGFAYWGQGTLVTVSA
VL: DVLMTQTPLSLPVSLGDQASISCRSNQSIVHSNGYTYLEWYLQKPGQSPKLLIYKVSNRFSGVPDRFSGSGSGTDFTLRISRVEAEDLGVYYCFQGSHVPRTFGGGTKLEIK
notes: Tested as a purified mouse monoclonal antibody from a hybridoma
binding result [1]: binds
binding result [2]: binds
